Target: T1, Recombinant tissue transglutaminase (tG) (human), P21980
T1 chain: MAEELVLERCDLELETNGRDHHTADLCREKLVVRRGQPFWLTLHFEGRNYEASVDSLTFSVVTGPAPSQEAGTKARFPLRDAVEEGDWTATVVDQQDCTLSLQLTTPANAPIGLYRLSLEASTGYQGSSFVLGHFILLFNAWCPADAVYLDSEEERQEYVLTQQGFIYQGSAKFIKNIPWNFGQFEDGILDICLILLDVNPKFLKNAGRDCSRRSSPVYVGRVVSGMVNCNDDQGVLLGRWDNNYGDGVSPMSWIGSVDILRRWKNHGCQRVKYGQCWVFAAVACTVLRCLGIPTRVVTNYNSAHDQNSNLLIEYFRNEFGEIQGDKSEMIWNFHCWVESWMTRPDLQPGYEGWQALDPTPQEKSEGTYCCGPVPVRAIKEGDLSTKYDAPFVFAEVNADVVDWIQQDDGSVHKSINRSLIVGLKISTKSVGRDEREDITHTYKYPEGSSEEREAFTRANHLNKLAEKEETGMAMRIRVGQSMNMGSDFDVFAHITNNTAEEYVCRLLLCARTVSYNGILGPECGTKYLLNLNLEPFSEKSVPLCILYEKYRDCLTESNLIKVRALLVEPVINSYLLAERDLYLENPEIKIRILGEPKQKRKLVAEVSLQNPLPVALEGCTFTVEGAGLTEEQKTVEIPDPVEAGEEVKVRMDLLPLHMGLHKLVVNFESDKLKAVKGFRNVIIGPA
Assay: time-resolved SAXS; Kenics mixer (straight opening device, reaction class 3); 2 mg ml^-1 tG mixed with 4 mM CaCl2 in 20 mM HEPES pH 7.5, 100 mM NaCl, 10% glycerol, 1 mM DTT; time points 32-1500 ms; monomer to dimer
Conditions: remark: other sources report otherwise

stoichiometry N: 2
B1: Recombinant tissue transglutaminase (tG), P21980 1-687 (enzyme)
chain: MAEELVLERCDLELETNGRDHHTADLCREKLVVRRGQPFWLTLHFEGRNYEASVDSLTFSVVTGPAPSQEAGTKARFPLRDAVEEGDWTATVVDQQDCTLSLQLTTPANAPIGLYRLSLEASTGYQGSSFVLGHFILLFNAWCPADAVYLDSEEERQEYVLTQQGFIYQGSAKFIKNIPWNFGQFEDGILDICLILLDVNPKFLKNAGRDCSRRSSPVYVGRVVSGMVNCNDDQGVLLGRWDNNYGDGVSPMSWIGSVDILRRWKNHGCQRVKYGQCWVFAAVACTVLRCLGIPTRVVTNYNSAHDQNSNLLIEYFRNEFGEIQGDKSEMIWNFHCWVESWMTRPDLQPGYEGWQALDPTPQEKSEGTYCCGPVPVRAIKEGDLSTKYDAPFVFAEVNADVVDWIQQDDGSVHKSINRSLIVGLKISTKSVGRDEREDITHTYKYPEGSSEEREAFTRANHLNKLAEKEETGMAMRIRVGQSMNMGSDFDVFAHITNNTAEEYVCRLLLCARTVSYNGILGPECGTKYLLNLNLEPFSEKSVPLCILYEKYRDCLTESNLIKVRALLVEPVINSYLLAERDLYLENPEIKIRILGEPKQKRKLVAEVSLQNPLPVALEGCTFTVEGAGLTEEQKTVEIPDPVEAGEEVKVRMDLLPLHMGLHKLVVNFESDKLKAVKGFRNVIIGPA

Reference: publication PMC10161774
